± gives the uncertainty stated by the source.

This data set in a line: abundance fitness (aPCA) (normalised: wild type 0, dead -1); higher = more abundant; growth selection in yeast, the domain comes from the species named. The following applies: Homo sapiens.
Regarding “Scaffold attachment factor B2 K44Y, Q14151”, the abundance fitness is -0.494 ± 0.15.

“Scaffold attachment factor B2 K53A, Q14151” registered an abundance fitness of -0.516 ± 0.08.

For the substance “Scaffold attachment factor B2 K53C, Q14151”, the abundance fitness is -0.368 ± 0.081.

“Scaffold attachment factor B2 K53D, Q14151” yielded an abundance fitness of -0.716 ± 0.22.

In turn, “Scaffold attachment factor B2 K53E, Q14151” yielded an abundance fitness of -0.136 ± 0.091.

For “Scaffold attachment factor B2 K53F, Q14151”, the abundance fitness was -0.445 ± 0.13.

“Scaffold attachment factor B2 K53G, Q14151” showed an abundance fitness of -0.473 ± 0.076.

In turn, “Scaffold attachment factor B2 K53L, Q14151” had an abundance fitness of -0.326 ± 0.078.

“Scaffold attachment factor B2 K53M, Q14151” returned an abundance fitness of -0.338 ± 0.11.

Turning to “Scaffold attachment factor B2 K53N, Q14151”, the abundance fitness was -0.463 ± 0.14.

As to “Scaffold attachment factor B2 K53P, Q14151”, the abundance fitness is -0.204 ± 0.099.

With “Scaffold attachment factor B2 K53Q, Q14151”, the abundance fitness is -0.274 ± 0.12.

On to “Scaffold attachment factor B2 K53R, Q14151”, for which the abundance fitness is -0.047 ± 0.085.

Take “Scaffold attachment factor B2 K53T, Q14151”: the abundance fitness is -0.352 ± 0.11.

Regarding “Scaffold attachment factor B2 K53V, Q14151”, the abundance fitness was -0.577 ± 0.083.

On to “Scaffold attachment factor B2 K53W, Q14151”, for which the abundance fitness is -0.39 ± 0.11.

As for “Scaffold attachment factor B2 K53Y, Q14151”, the abundance fitness is -0.054 ± 0.43.

For “Scaffold attachment factor B2 K61A, Q14151”, the abundance fitness came out at 0.022 ± 0.084.

For the substance “Scaffold attachment factor B2 K61C, Q14151”, the abundance fitness was -0.303 ± 0.15.

In the case of “Scaffold attachment factor B2 K61D, Q14151”, the abundance fitness was -0.082 ± 0.17.

“Scaffold attachment factor B2 K61G, Q14151” showed an abundance fitness of -0.015 ± 0.1.

On to “Scaffold attachment factor B2 K61H, Q14151”, for which the abundance fitness is -0.128 ± 0.11.

“Scaffold attachment factor B2 K61L, Q14151” showed an abundance fitness of -0.282 ± 0.083.

The substance “Scaffold attachment factor B2 K61M, Q14151” registered an abundance fitness of -0.186 ± 0.11.

Take “Scaffold attachment factor B2 K61N, Q14151”: the abundance fitness was -0.002 ± 0.095.

“Scaffold attachment factor B2 K61P, Q14151” had an abundance fitness of -0.203 ± 0.13.

In turn, “Scaffold attachment factor B2 K61Q, Q14151” returned an abundance fitness of -0.072 ± 0.096.

On to “Scaffold attachment factor B2 K61R, Q14151”, for which the abundance fitness is -0.184 ± 0.095.

Substance “Scaffold attachment factor B2 K61S, Q14151” yielded an abundance fitness of -0.359 ± 0.091.

Regarding “Scaffold attachment factor B2 K61T, Q14151”, the abundance fitness was -0.22 ± 0.17.

Substance “Scaffold attachment factor B2 K61V, Q14151” had an abundance fitness of -0.094 ± 0.095.

In turn, “Scaffold attachment factor B2 K61W, Q14151” came in with an abundance fitness of -0.357 ± 0.1.

In turn, “Scaffold attachment factor B2 K61Y, Q14151” gave an abundance fitness of -0.792 ± 0.32.

In turn, “Scaffold attachment factor B2 K62C, Q14151” returned an abundance fitness of -0.303 ± 0.12.

Substance “Scaffold attachment factor B2 K62D, Q14151” had an abundance fitness of -0.123 ± 0.13.

The substance “Scaffold attachment factor B2 K62E, Q14151” displayed an abundance fitness of -0.002 ± 0.1.

Consider “Scaffold attachment factor B2 K62F, Q14151”, for which the abundance fitness is -0.385 ± 0.1.

Regarding “Scaffold attachment factor B2 K62G, Q14151”, the abundance fitness was -0.115 ± 0.07.

“Scaffold attachment factor B2 K62H, Q14151” showed an abundance fitness of -0.083 ± 0.15.

“Scaffold attachment factor B2 K62L, Q14151” gave an abundance fitness of -0.212 ± 0.11.

Turning to “Scaffold attachment factor B2 K62M, Q14151”, the abundance fitness is -0.288 ± 0.19.

“Scaffold attachment factor B2 K62N, Q14151” returned an abundance fitness of -0.246 ± 0.14.

In the case of “Scaffold attachment factor B2 K62P, Q14151”, the abundance fitness is -0.407 ± 0.2.

Turning to “Scaffold attachment factor B2 K62Q, Q14151”, the abundance fitness was -0.125 ± 0.13.

Take “Scaffold attachment factor B2 K62R, Q14151”: the abundance fitness is -0.075 ± 0.078.

The substance “Scaffold attachment factor B2 K62S, Q14151” displayed an abundance fitness of -0.125 ± 0.095.

“Scaffold attachment factor B2 K62V, Q14151”: the abundance fitness was -0.163 ± 0.1.

“Scaffold attachment factor B2 K62W, Q14151” gave an abundance fitness of -0.375 ± 0.12.

“Scaffold attachment factor B2 K62Y, Q14151” gave an abundance fitness of -0.447 ± 0.37.

For the substance “Scaffold attachment factor B2 K65A, Q14151”, the abundance fitness is -0.138 ± 0.12.

On to “Scaffold attachment factor B2 K65C, Q14151”, for which the abundance fitness is -0.145 ± 0.12.

“Scaffold attachment factor B2 K65D, Q14151” registered an abundance fitness of 0.036 ± 0.14.

“Scaffold attachment factor B2 K65F, Q14151” gave an abundance fitness of -0.396 ± 0.22.

“Scaffold attachment factor B2 K65H, Q14151” yielded an abundance fitness of 0.463 ± 0.23.

In turn, “Scaffold attachment factor B2 K65I, Q14151” registered an abundance fitness of -0.241 ± 0.14.

“Scaffold attachment factor B2 K65L, Q14151” came in with an abundance fitness of -0.205 ± 0.1.

Take “Scaffold attachment factor B2 K65M, Q14151”: the abundance fitness was -0.181 ± 0.11.

“Scaffold attachment factor B2 K65N, Q14151” showed an abundance fitness of -0.148 ± 0.37.

“Scaffold attachment factor B2 K65P, Q14151” showed an abundance fitness of -0.054 ± 0.18.

In turn, “Scaffold attachment factor B2 K65Q, Q14151” registered an abundance fitness of -0.309 ± 0.28.

As for “Scaffold attachment factor B2 K65R, Q14151”, the abundance fitness is -0.136 ± 0.099.

Regarding “Scaffold attachment factor B2 K65T, Q14151”, the abundance fitness amounted to 0.044 ± 0.17.

Substance “Scaffold attachment factor B2 K65V, Q14151” displayed an abundance fitness of -0.111 ± 0.086.

Consider “Scaffold attachment factor B2 K65W, Q14151”, for which the abundance fitness is -0.269 ± 0.12.

Substance “Scaffold attachment factor B2 K65Y, Q14151” returned an abundance fitness of -0.35 ± 0.16.

As for “Scaffold attachment factor B2 L30A, Q14151”, the abundance fitness was -0.28 ± 0.099.

Consider “Scaffold attachment factor B2 L30C, Q14151”, for which the abundance fitness is -0.708 ± 0.094.

Substance “Scaffold attachment factor B2 L30D, Q14151” came in with an abundance fitness of -0.086 ± 0.15.

Regarding “Scaffold attachment factor B2 L30E, Q14151”, the abundance fitness is -0.232 ± 0.094.

The values above are taken from the Human Domainome abundance scans (Beltran et al. 2025).
